T1: cCFP-DGCR14/ESS2 (human DGCR14/ESS2 fused with the C-terminal fragment of CFP) (Homo sapiens, UniProt Q96DF8 1-476)
T1 construct: BiFC fusion transiently expressed in Arabidopsis leaf mesophyll protoplasts; also called Has DGCR14/ESS2; NM_022719; not shown: C-terminal fragment of CFP (cCFP) from vector pSATI-cCFP-C
T1 sequence: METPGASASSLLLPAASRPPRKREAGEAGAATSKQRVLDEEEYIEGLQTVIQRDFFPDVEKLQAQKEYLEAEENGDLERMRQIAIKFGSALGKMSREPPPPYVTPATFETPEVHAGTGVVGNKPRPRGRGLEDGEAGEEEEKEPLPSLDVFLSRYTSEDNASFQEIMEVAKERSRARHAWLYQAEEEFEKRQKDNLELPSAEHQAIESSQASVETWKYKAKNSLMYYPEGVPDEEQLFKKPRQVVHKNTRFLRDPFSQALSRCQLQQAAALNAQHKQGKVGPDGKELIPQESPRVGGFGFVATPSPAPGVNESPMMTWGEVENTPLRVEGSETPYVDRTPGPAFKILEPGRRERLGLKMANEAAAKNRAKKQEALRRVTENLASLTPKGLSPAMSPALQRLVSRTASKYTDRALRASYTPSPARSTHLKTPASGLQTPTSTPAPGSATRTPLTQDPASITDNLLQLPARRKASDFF

B1: nVenus-U1-70 k (U1 SMALL NUCLEAR RIBONUCLEOPROTEIN-70K fused with the N-terminal fragment of Venus) (other, Arabidopsis, UniProt Q42404 1-427, looked up)
chain: MGDSGDPFLRNPNAAVQARAKVQNRANVLQLKLMGQSHPTGLTNNLLKLFEPRPPLEYKPPPEKRKCPPYTGMAQFVSNFAEPGDPEYAPPKPEVELPSQKRERIHKLRLEKGVEKAAEDLKKYDPNNDPNATGDPYKTLFVSRLNYESSESKIKREFESYGPIKRVHLVTDQLTNKPKGYAFIEYMHTRDMKAAYKQADGQKIDGRRVLVDVERGRTVPNWRPRRLGGGLGTSRVGGGEEIVGEQQPQGRTSQSEEPSRPREEREKSREKGKERERSRELSHEQPRERSRDRPREDKHHRDRDQGGRDRDRDSRRDRDRTRDRGDRDRRDRDRGRDRTSRDHDRDRSRKKERDYEGGEYEHEGGGRSRERDAEYRGEPEETRGYYEDDQGDTDRYSHRYDKMEEDDFRYEREYKRSKRSESREYVR
notes: BiFC fusion transiently expressed in Arabidopsis protoplasts; also called AT3G50670; not shown: N-terminal fragment of Venus (nVenus) from vector pSATI-nVenus-C
B2: nVenus-U2B (U2 SMALL NUCLEAR RIBONUCLEOPROTEIN B fused with the N-terminal fragment of Venus) (other, Arabidopsis, UniProt O22922 1-232, looked up)
chain: MLTADIPPNQSIYIQNLNERIKKEELKRSLYCLFSQFGRILDVVALKTPKLRGQAWVTFSEVTAAGHAVRQMQNFPFYDKPMRLQYAKAKSDCLAKAEGTFVPKDKKRKQEEKVERKREDSQRPNTANGPSANGPSANNGVPAPSFQPSGQETMPPNNILFIQNLPHETTSMMLQLLFEQYPGFKEIRMIDAKPGIAFVEYEDDVQASIAMQPLQGFKITPQNPMVISFAKK
notes: BiFC fusion transiently expressed in Arabidopsis protoplasts; also called AT2G30260; not shown: N-terminal fragment of Venus (nVenus) from vector pSATI-nVenus-C

Legend:
Assay in all cases: bimolecular fluorescence complementation (BiFC) in Arabidopsis protoplasts
[1] = target: T1, cCFP-DGCR14/ESS2 (human DGCR14/ESS2 …)
Experimental: (§1) Protoplast isolation and transfection were performed as previously described (Xie et al. (The Plant Cell 30, 1645-1660 (2018)). For subcellular localization, 8 μg of DGCR14l-YFP and DGCR14/ESS2-YFP constructs were co-transfected with 2 μg of the nuclear marker construct (mCherry-)VirD2NLS), respectively, into 100 μl of protoplasts (˜2×10⁴ cells) to determine their subcellular localizations. For colocalization, paired constructs (5 μg each) were co-transfected into 100 μl of protoplasts. For BiFC, paired genes were cloned into pSATI-nVenus-C (fuse with nVenus) and pSATI-cCFP-C (fuse with cCFP), respectively. Then their expression cassettes were cloned into pUC119 (pUC-RCS) vector using AscI for transient expression in protoplasts. The generated constructs (4 μl of nVenus construct and 4 μl of cCFP construct) were co-transfected with 2 μl of the nuclear marker construct (mCherry-VirD2NLS) into 100 μl of protoplasts. After 14 h incubation under weak light at room temperature, protoplasts were collected and resuspended in cold W5 solution (2 mM MES pH 5.7, 154 mM NaCl, 125 mM CaCl₂, and 5 mM KCl) to subject to microscopy. Images were collected using a Zeiss LSM 710 confocal microscope, equipped with 514 and 561 nm laser lines for excitation of YFP and mCherry, respectively. Images were processed using Zen software (Zeiss).
(§2) To further test the association of DGCR14l and DGCR14/ESS2 with spliceosome, a bimolecular fluorescence complementation (BiFC) assay was performed in Arabidopsis protoplasts. In this assay, DGCR14 orthologs and U1-70 k were fused with split YFP (C-terminal fragment of CFP (cCFP) and N-terminal of Venus (nVenus)), and co-expressed in protoplasts. The interaction between two proteins will bring cCFP and nVenus together to form a functional YFP, which then leads to fluorescence. […] In contrast, no YFP signal was detected from DGCR14l-U2B or DGCR14/ESS2-U2B interaction (FIG. 2C), further supporting DGCR14's selectivity on spliceosome components.

[2] = target: B2
Experimental: as §1, §2

[3] = target: B1
Experimental: as §1, §2

| binding result [1] | binding result [2] | binding result [3] | Binder |
| --- | --- | --- | --- |
| binds | – | – | B1 |
| – | no binding | binds | cCFP-DGCR14l (Arabidopsis thaliana DGCR14-like fused with the C-terminal fragment of CFP) (other, BiFC fusion transiently expressed in Arabidopsis leaf mesophyll protoplasts; also called Ath DGCR14l; Arabidopsis DGCR14; not shown: C-terminal fragment of CFP (cCFP) from vector pSATI-cCFP-C) MFLSPGHSPRQISSPSPSSYSDDTLRSTPRSSSSEIIPRNPRKRMRVLDEDAYVEAIEKIIERDYFPDITKLRDRLDWIQAVKTRDPIQIRDAQLKIIERRGKKANHHVGDTEGKTQTPGSTFLRNFTPLDEFDGKTPRTPGVSGREFHGVEVDAGDGDEDIDLNLSLDEFFRRYTSEDNESFSKILEKVNRKKKEKYGFLLEGEKEDGKSIEDVKRDRITDGYGTSDQPPSTLEGWKYTAKNLLMYHPADRGEAPLTEAERAVRLLGLTKEIVKGNTRFHGKTMDSRPREDGSVEILYTPIAGSSPMHISGRDRDKSKRYDLDDLRKTPNPFYVESDKRADNGYSFVRTPSPAPGLDESPFITWGEIDGTPMRLDLEDTPIDIGGSADGPHYNIPSAPPRDVRAHSLSRDASRKLRERSNSMFKKPPLPSPHRSGSASPNVRTLSPAAQKFFRKAIAKSSSTVDESLRASYRGASPRGASPGAVTPKSVRSISRFGKDGTSSETRSP |
| no binding | – | – | B2 |

Source: patent US20210062213A1 (UT BATTELLE, published 2021)
